What was measured:
human FOLR1-HIS = target: T1, human FOLR1-HIS (human, UniProt P15328 25-233); experiment: SPR (Biacore)
T1 construct: Analyte of the Biacore assay; also called FolRα-ECD; extracellular domain of FOLR1; not shown: HIS tag

[1] = target: T2, cynomolgus folate receptor alpha on CHO cells (cynomolgus monkey, UniProt P15328 25-234 (human entry)); experiment: FACS cell binding on CHO-c-FOLRα cells (row 'Cross-reactivity, Cyno')
T2 construct: Stably expressed on CHO cells; also called CHO-c-FOLRα; CHO-cFOLR1
Protocol: (§1) CHO cells were transfected to stably express human (CHO-hFOLR1), cynomolgus (CHO-cFOLR1), or mouse (CHO-mFOLR1) target molecule FOLR1 on the cell surface. Parental CHO cells were used as a negative control to determine background binding levels. Parental CHO and stably transfected CHO-hFOLR1, CHO-cFOLR1, and CHO-mFOLR1 cells were cultured in Ham's F-12: high glucose DMEM (50:50) (Corning, Cellgro-Mediatech) supplemented with 10% heat-inactivated fetal bovine serum (Corning, Cellgro-Mediatech), 1% Penicillin/Streptomycin (Corning, Cellgro-Mediatech) and 2 mmol/L-glutamax (Life Technology).
(§2) A mixture of fluoresecent-labeled parental CHO cells and unlabeled CHO-hFOLRlcells were prepared as follows. Parental CHO cells were washed twice in PBS and incubated in PBS containing with 1 nM CellTrace™ Oregon Green488® (Life Technologies) at 37° C. for 30 minutes. Labeled parental CHO cells were then washed 2× with Ham's F-12 media and 2× with FACS buffer (PBS with 1% bovine serum albumin). Unlabeled CHO-hFOLR1 cells were similarly washed and prepared. […] Data were analyzed using FlowJo® software (FlowJo, LLC; Ashland, OR) to determine mean fluorescence intensities. Binding constants were calculated using the statistical software, GraphPad Prism (GraphPad Software; La Jolla, CA) using the nonlinear regression equation, one site-specific binding with Hill slope. […]

[2] = target: T3, human folate receptor alpha (hFOLR1) on cells (human, UniProt P15328 25-234); experiment: FACS cell binding on CHO-h-FOLRα cells
T3 construct: It is endogenous on the Igrov1 and OVCAR3 tumour cells of the killing assays; also called CHO-h-FOLRα; CHO-hFOLR1
Protocol: as §1, §2

[3] = target: T4, human folate receptor alpha on cells (human, UniProt P15328 25-234); experiment: cell-based or functional assay
[4] = target: T5, human folate receptor beta on cells (human, UniProt P14207 17-230); experiment: cell-based or functional assay
[5] = target: T4, human folate receptor alpha on cells; experiment: FACS cell binding (MFI) on 293T cells stably expressing hFOLR1 (293T-hFOLR1); parental 293T cells as negative control
[6] = target: T4, human folate receptor alpha on cells; experiment: FACS cell binding (MFI) on 293T-hFOLR1 cells; parental 293T cells as negative control
[7] = target: T5, human folate receptor beta on cells; experiment: FACS cell binding (MFI) on 293T cells stably expressing hFOLR2 (293T-hFOLR2); parental 293T cells as negative control

T4 sequence (P15328 25-234 limits assumed): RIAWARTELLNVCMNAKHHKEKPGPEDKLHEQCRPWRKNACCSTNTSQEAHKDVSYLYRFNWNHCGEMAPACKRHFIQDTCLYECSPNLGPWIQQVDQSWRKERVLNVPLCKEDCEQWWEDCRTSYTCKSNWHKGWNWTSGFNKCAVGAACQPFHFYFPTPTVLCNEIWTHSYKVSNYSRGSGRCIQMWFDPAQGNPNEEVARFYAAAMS
T5 sequence (P14207 17-230): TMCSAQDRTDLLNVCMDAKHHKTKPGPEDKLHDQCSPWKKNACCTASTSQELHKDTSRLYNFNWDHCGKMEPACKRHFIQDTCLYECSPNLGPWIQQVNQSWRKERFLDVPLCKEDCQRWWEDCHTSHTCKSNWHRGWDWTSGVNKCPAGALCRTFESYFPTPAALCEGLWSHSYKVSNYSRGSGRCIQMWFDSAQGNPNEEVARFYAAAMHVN
T1 sequence (P15328 25-233 limits assumed): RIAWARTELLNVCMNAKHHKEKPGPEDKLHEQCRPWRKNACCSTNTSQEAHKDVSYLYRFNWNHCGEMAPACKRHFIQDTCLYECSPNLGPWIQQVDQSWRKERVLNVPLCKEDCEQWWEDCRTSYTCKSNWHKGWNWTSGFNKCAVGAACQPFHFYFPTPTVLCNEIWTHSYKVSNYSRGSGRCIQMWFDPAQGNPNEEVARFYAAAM
T3 sequence (P15328 25-234 limits assumed): as the sequence (P15328 25-234 limits assumed) above
T2 sequence (P15328 other isoform, or with tags, fused parts or gaps limits assumed): as the sequence (P15328 25-234 limits assumed) above, with I2T, W4R, R37K, Q117R, A146P, H171Y counted along it

| Binder | Kd (human FOLR1-HIS) [nM] | Kd [1] [nM] | Kd [2] [nM] | Kd [5] [nM] | further results |
| --- | --- | --- | --- | --- | --- |
| 1848-B10, Y180/F404 (antibody, V domains shown, para-azidomethyl-L-phenylalanine (pAMF) at HC-Y180 and HC-F404 (EU numbering; both lie in the heavy chain constant region, not in this VH piece), Lead antibody with non-natural amino acid sites Y180/F404) VH: EVQLVESGGGLVQPGGSLRLSCAASGFNTTTKSIHWVRQAPGKGLEWVGEIYPRDGITDYADSVKGRFTISADTSKNTAYLQMNSLRAEDTAVYYCARGGWHWRSGYSYYLDYWGQGTLVTVSS VL: not shown | 1.4 | 3.3 | 4.5 |  |  |
| 1848-H01, Y180/F404 (antibody, V domains shown, para-azidomethyl-L-phenylalanine (pAMF) at HC-Y180 and HC-F404 (EU numbering; both lie in the heavy chain constant region, not in this VH piece), Lead antibody with non-natural amino acid sites Y180/F404) VH: EVQLVESGGGLVQPGGSLRLSCAASGFNIRTQSIHWVRQAPGKGLEWIGDIFPIDGITDYADSVKGRFTISADTSKNTAYLQMNSLRAEDTAVYYCARGSWSWPSGMDYYLDYWGQGTLVTVSS VL: not shown | 1 | 3.8 | 3.7 |  |  |
| ADC Molecule 4 (1848-H01, Y180/F404, Conjugate P) (antibody, V domains shown, Non-natural amino acid (para-azidomethyl-L-phenylalanine) at HC-Y180 and HC-F404 (EU, in the constant region, which has no SEQ ID NO), each linked to cleavable ValCit hemiasterlin (Conjugate P); DAR about 3.7-3.8) VH: EVQLVESGGGLVQPGGSLRLSCAASGFNIRTQSIHWVRQAPGKGLEWIGDIFPIDGITDYADSVKGRFTISADTSKNTAYLQMNSLRAEDTAVYYCARGSWSWPSGMDYYLDYWGQGTLVTVSS VL: not shown |  |  |  |  | EC50 of cytotoxic activity on 293T cells expressing FolRα [3]: < 10 nM; EC50 of cytotoxic activity on 293T cells expressing FolRβ [4]: ~100 nM |
| antibody 1848-H01 (antibody, V domains shown, the light chain is that of trastuzumab; It was tested as an IgG (detected with anti-human IgG); also called SRP1848-H01) VH: EVQLVESGGGLVQPGGSLRLSCAASGFNIRTQSIHWVRQAPGKGLEWIGDIFPIDGITDYADSVKGRFTISADTSKNTAYLQMNSLRAEDTAVYYCARGSWSWPSGMDYYLDYWGQGTLVTVSS VL: not shown |  |  |  | 9.9 | EC50 (read off the curve) [6]: ~10 nM |
| antibody 1848-B10 (antibody, V domains shown, the light chain is that of trastuzumab; It was tested as an IgG; also called SRP1848-B10) VH: EVQLVESGGGLVQPGGSLRLSCAASGFNTTTKSIHWVRQAPGKGLEWVGEIYPRDGITDYADSVKGRFTISADTSKNTAYLQMNSLRAEDTAVYYCARGGWHWRSGYSYYLDYWGQGTLVTVSS VL: not shown |  |  |  | 6.4 | binding result [7]: no binding |

From patent publication US20250090676A1 (SUTRO BIOPHARMA, published 2025)
